Publication PMC9132681 (Biochimie, 2022)

B1: cytosolic fragment of human TOM70 (residues 111-608), His-tagged (domain or fragment)
chain: LDRAQAAKNKGNKYFKAGKYEQAIQCYTEAISLCPTEKNVDLSTFYQNRAAAFEQLQKWKEVAQDCTKAVELNPKYVKALFRRAKAHEKLDNKKECLEDVTAVCILEGFQNQQSMLLADKVLKLLGKEKAKEKYKNREPLMPSPQFIKSYFSSFTDDIISQPMLKGEKSDEDKDKEGEALEVKENSGYLKAKQYMEEENYDKIISECSKEIDAEGKYMAEALLLRATFYLLIGNANAAKPDLDKVISLKEANVKLRANALIKRGSMYMQQQQPLLSTQDFNMAADIDPQNADVYHHRGQLKILLDQVEEAVADFDECIRLRPESALAQAQKCFALYRQAYTGNNSSQIQAAMKGFEEVIKKFPRCAEGYALYAQALTDQQQFGKADEMYDKCIDLEPDNATTYVHKGLLQLQWKQDLDRGLELISKAIEIDNKCDFAYETMGTIEVQRGNMEKAIDMFNKAINLAKSEMEMAHLYSLCDAAHAQTEVAKKYGLKPPTL
B2: C-terminal domain of human Hsp90 (residues 566-732) (domain or fragment)
chain: not shown

How the values were obtained:
[1] = target: full-length human Hsp90 (human, UniProt P07900 1-732); assay: pull-down
[2] = target: B1; assay: SEC-MALS

B1: binds [1].

B2 was tested, and the “stoichiometry N” value [2] was 2 C-Hsp90 per TOM70.
